The numbers were not newly measured in paper PMC8065807, which cites them from elsewhere.

By Kd is commonly meant a measure of binding affinity in units of concentration.

The target in this series is EGFR (Homo sapiens) (UniProt P00533).

For GE11, the Kd was 0.022 µM.
